PMC7954794, “Protein context shapes the specificity of SH3 domain-mediated interactions in vivo” (Nature Communications, 2021)

Tested on: Abp1 PPIs
Assay: DHFR-PCA of Abp1 SH3-swapped baits (Fig. 2B-D, S2C, S2F);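 for Protein-protein interaction distance between Abp1 SH3-swapped baits, to ABP1: Euclidean distance between DHFR-PCA score profiles of the baits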;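 for Protein-protein interaction distance between Abp1 SH3-swapped baits, to BEM1-2: Euclidean distance between DHFR-PCA score profiles of the baits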;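 for Protein-protein interaction distance between Abp1 SH3-swapped baits, to BOI1: Euclidean distance between DHFR-PCA score profiles of the baits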;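 for Protein-protein interaction distance between Abp1 SH3-swapped baits, to BZZ1-1: Euclidean distance between DHFR-PCA score profiles of the baits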
Type: cell-based, Saccharomyces cerevisiae
Outline: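 Yeast DHFR-PCA in which Abp1 baits, carrying their SH3 replaced by CRISPR–Cas9 with one of 27 yeast SH3s or human CTTN, HCLS1 or DBNL SH3s, were mated against 575 SH3-associated DHFR F[3] preys plus 40 negative controls. Four tests were run per PPI. Diploids were selected twice (48 h, 30 °C), then grown 4 days on PCA selection media.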

[1] = number of PPIs, difference, Abp1 SH3-swapped with the listed SH3, Fig2D,S2F

B1: PEX13 (protein, UniProt P80667 1-386, looked up)
Peroxisomal membrane protein …: MSSTAVPRPKPWETSASLEEPQRNAQSLSAMMTSNQQDSRPTEESNNSNSASESAPEVLPRPAALNSSGTYGESNTIPGIYGNSNYGIPYDNNPYSMNSIYGNSIGRYGYGGSYYGNNYGSFYGGGYGAGAGYGMNNGSGLGESTKATFQLIESLIGAVTGFAQMLESTYMATHNSFFTMISVAEQFGNLKEMLGSFFGIFAIMKFLKKILYRATKGRLGIPPKNFAESEGSKNKLIEDFQKFNDSGTINSNEKATRRKISWKPLLFFLMAVFGFPYLLNKFITKLQTSGTIRASQGNGSEPIDPSKLEFARALYDFVPENPEMEVALKKGDLMAILSKKDPLGRDSDWWKVRTKNGNIGYIPYNYIEIIKRRKKIEHVDDETRTH
Protein-protein interaction distance between Abp1 SH3-swapped baits, to ABP1 (Abp1 bait with swapped SH3, distance to bait with ABP1 SH3, sheet Fig2C): 10.96
Protein-protein interaction distance between Abp1 SH3-swapped baits, to BBC1 (distance to Abp1 bait with BBC1 SH3, sheet Fig2C): 10.86
Protein-protein interaction distance between Abp1 SH3-swapped baits, to BEM1-1 (distance to Abp1 bait with BEM1-1 SH3, sheet Fig2C): 16.62
Protein-protein interaction distance between Abp1 SH3-swapped baits, to BEM1-2 (distance to Abp1 bait with BEM1-2 SH3, sheet Fig2C): 35.19
Protein-protein interaction distance between Abp1 SH3-swapped baits, to BOI1 (distance to Abp1 bait with BOI1 SH3, sheet Fig2C): 13.22
Protein-protein interaction distance between Abp1 SH3-swapped baits, to BOI2 (distance to Abp1 bait with BOI2 SH3, sheet Fig2C): 16.99
Protein-protein interaction distance between Abp1 SH3-swapped baits, to BUD14 (distance to Abp1 bait with BUD14 SH3, sheet Fig2C): 19.91
Protein-protein interaction distance between Abp1 SH3-swapped baits, to BZZ1-1 (distance to Abp1 bait with BZZ1-1 SH3, sheet Fig2C): 7.297
Protein-protein interaction distance between Abp1 SH3-swapped baits, to BZZ1-2 (distance to Abp1 bait with BZZ1-2 SH3, sheet Fig2C): 13.09
Protein-protein interaction distance between Abp1 SH3-swapped baits, to CDC25 (distance to Abp1 bait with CDC25 SH3, sheet Fig2C): 29.16
Protein-protein interaction distance between Abp1 SH3-swapped baits, to CTTN (distance to Abp1 bait with CTTN SH3, sheet Fig2C): 14.16
Protein-protein interaction distance between Abp1 SH3-swapped baits, to CYK3 (distance to Abp1 bait with CYK3 SH3, sheet Fig2C): 29.86
Protein-protein interaction distance between Abp1 SH3-swapped baits, to DBNL (distance to Abp1 bait with DBNL SH3, sheet Fig2C): 7.699
Protein-protein interaction distance between Abp1 SH3-swapped baits, to FUS1 (distance to Abp1 bait with FUS1 SH3, sheet Fig2C): 21.37
Protein-protein interaction distance between Abp1 SH3-swapped baits, to HCLS1 (distance to Abp1 bait with HCLS1 SH3, sheet Fig2C): 8.5
Protein-protein interaction distance between Abp1 SH3-swapped baits, to HOF1 (distance to Abp1 bait with HOF1 SH3, sheet Fig2C): 33.79
Protein-protein interaction distance between Abp1 SH3-swapped baits, to HSE1 (distance to Abp1 bait with HSE1 SH3, sheet Fig2C): 8.715
Protein-protein interaction distance between Abp1 SH3-swapped baits, to LSB1 (distance to Abp1 bait with LSB1 SH3, sheet Fig2C): 6.728
Protein-protein interaction distance between Abp1 SH3-swapped baits, to LSB3 (distance to Abp1 bait with LSB3 SH3, sheet Fig2C): 7.361
Protein-protein interaction distance between Abp1 SH3-swapped baits, to MYO3 (distance to Abp1 bait with MYO3 SH3, sheet Fig2C): 8.874
Protein-protein interaction distance between Abp1 SH3-swapped baits, to MYO5 (distance to Abp1 bait with MYO5 SH3, sheet Fig2C): 7.969
Protein-protein interaction distance between Abp1 SH3-swapped baits, to NBP2 (distance to Abp1 bait with NBP2 SH3, sheet Fig2C): 19.13
Protein-protein interaction distance between Abp1 SH3-swapped baits, to PEX13 (distance to Abp1 bait with PEX13 SH3, sheet Fig2C): 0.00
Protein-protein interaction distance between Abp1 SH3-swapped baits, to PIN3 (distance to Abp1 bait with PIN3 SH3, sheet Fig2C): 5.433
Protein-protein interaction distance between Abp1 SH3-swapped baits, to RVS167 (distance to Abp1 bait with RVS167 SH3, sheet Fig2C): 4.587
Protein-protein interaction distance between Abp1 SH3-swapped baits, to SDC25 (distance to Abp1 bait with SDC25 SH3, sheet Fig2C): 35.86
Protein-protein interaction distance between Abp1 SH3-swapped baits, to SHO1 (distance to Abp1 bait with SHO1 SH3, sheet Fig2C): 8.672
Protein-protein interaction distance between Abp1 SH3-swapped baits, to SLA1-1 (distance to Abp1 bait with SLA1-1 SH3, sheet Fig2C): 31.78
Protein-protein interaction distance between Abp1 SH3-swapped baits, to SLA1-2 (distance to Abp1 bait with SLA1-2 SH3, sheet Fig2C): 21.86
Protein-protein interaction distance between Abp1 SH3-swapped baits, to SLA1-3 (distance to Abp1 bait with SLA1-3 SH3, sheet Fig2C): 6.985
Protein-protein interaction distance between Abp1 SH3-swapped baits, to YSC84 (distance to Abp1 bait with YSC84 SH3, sheet Fig2C): 7.848
PPIs gained by Abp1 - SH3-dependent PPIs gained by Abp1 [1]: 23
SH3-dependent PPIs - SH3-dependent PPIs gained by Abp1 [1]: 0
SH3-dependent PPIs gained by Abp1 (number of PPIs, Abp1 SH3-swapped with the listed SH3, DHFR-PCA, Fig2D,S2F): 1
